From patent publication US20240336701A1 (Novartis, published 2024)
Substitutions are numbered along the chain they refer to.

B1: ANTI-HUMAN ENTPD2 MAB21 (antibody, human IgG1, kappa, V domains shown)
VH: EVQLQQSGPELVKPGASVKISCKTSGYTFTEYTMHWVKQSHGKSLEWIGGINPNNGITTYNQKFKGKATLTVDKSSSTAYMDLRSLTSEGSAVYYCARRGFPIYYYGTSLYYFDYWGQGTTLTVSS
VL: QIVLTQSPAIMSASLGEEITLTCSASSSVSYMHWYQQRSGTSPKLLIYTTSNLASGVPSRFSGSGSGTFYSLTISSVEAEDAADYYCHQWSSYPWTFGGGTKLEIKR
B2: ANTI-HUMAN ENTPD2 MAB1 (antibody, human IgG1, kappa, V domains shown)
VH: EVQLVQSGAEVKKPGESLKISCKASGYTFTDYNMDWVRQMPGKGLEWMGDINPKYDISTYNQQFKGQVTISADKSIRTAYLQWSSLKASDTAMYYCARRGFFLYYGINYYYFDVWGQGTLVTVSS
VL: DIQLTQSPSSLSASVGDRVTITCSASSSVSYIHWFQQKPGKAPKLLIYSTSNLASGVPSRFSGSGSGTFFTLTISSLQPEDFATYFCHQWSSYPWTFGQGTKVEIKR
B3: ANTI-HUMAN ENTPD2 MAB16 (antibody, human IgG1, kappa, V domains shown)
VH: DIQLQESGPGLVKPSQSLSLTCSVTGYSITSGYYWNWIRQFPGNKLEWMGYISYDGDNNYNPSLKNRISITRDTSKNQFFLKLSSVTTEDTATYYCAGGYYRYGLSYYYVMDYWGQGTSVTVSS
VL: DTVLTQSPASLAVSLGQRATISCKASQSVDYDGNSYMNWYQQKPGQPPKLLIYAASNLESGIPARFSGSGSGTDFTLNIHPVEEEDAATYYCQQSNEDPPTFGGGTKLEIKR
B4: ANTI-HUMAN ENTPD2 MAB17 (antibody, human IgG1, kappa, V domains shown)
VH: EVQLQQFGAELVKPGASVKISCKASGYTFTDYNMDWVKQSHGKSLEWIGDINPKYDISTYNQQFKGKATLTVDKSSSTAYMELRSLTSEDTAVYYCARRGFFLYYGINYYYFDVWGAGTTVTVSS
VL: B1 VL with M32I, R38K, K44T, T49S
B5: ANTI-mouse ENTPD2 MAB13 (antibody, mouse IgG2a, kappa, V domains shown)
VH: QVQLVQSGAELKQPGQSVKISCKASGYTFTHYGMNWVKQAPGQGLKWMGWINTDTGNPTYADDFKGRFVFSLDTSVSTAYLQISNLKNEDTATYYCVRYGTLYSGYGFFFDSWGQGTLVTVSS
VL: DIMMTQSPSSLSVSAGEKATITCKSSQSLFNSNTNKNYLNWYLQKPGQSPKLLFYYASTRHTGVPDRFIGSGSGTDFTLTITSVQDEDLADYYCQQWYSYPWTFGPGTKLEIKR
notes: also called Anti-ENTPD2 mAb13
B6: ANTI-mouse ENTPD2 MAB14 (antibody, mouse IgG2a, kappa, V domains shown)
VH: B5 VH with T30W
VL: B5 VL
B7: ANTI-mouse ENTPD2 MAB15 (antibody, mouse IgG2a, kappa, V domains shown)
VH: B5 VH with T30H
VL: B5 VL

Assays:
[1] = molecular target: recombinant human ENTPD2 extracellular domain (residues 29-462) with C-terminal Avi-His6 tag (human, UniProt Q9Y5L3 29-462); experiment: cell-based or functional assay
[2] = molecular target: T1, human ENTPD2, full length, on cells (human, UniProt Q9Y5L3 1-495); experiment: cell-based or functional assay
T1 sequence: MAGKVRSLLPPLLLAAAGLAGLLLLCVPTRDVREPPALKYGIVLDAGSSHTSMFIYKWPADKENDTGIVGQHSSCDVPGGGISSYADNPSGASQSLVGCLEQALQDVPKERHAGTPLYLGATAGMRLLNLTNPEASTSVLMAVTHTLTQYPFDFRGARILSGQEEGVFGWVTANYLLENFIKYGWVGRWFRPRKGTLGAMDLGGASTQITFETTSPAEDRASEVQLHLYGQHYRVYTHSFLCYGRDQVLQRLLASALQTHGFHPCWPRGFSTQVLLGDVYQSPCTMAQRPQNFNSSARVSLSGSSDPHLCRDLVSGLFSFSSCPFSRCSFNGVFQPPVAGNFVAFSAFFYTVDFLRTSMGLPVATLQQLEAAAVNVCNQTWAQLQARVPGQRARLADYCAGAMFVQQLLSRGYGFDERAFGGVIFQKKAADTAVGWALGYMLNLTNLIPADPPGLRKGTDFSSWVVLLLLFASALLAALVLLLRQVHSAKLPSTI

[3] = molecular target: T2, cynomolgus ENTPD2, full length, on cells (cynomolgus macaque, UniProt Q9Y5L3 1-495 (human entry)); experiment: cell-based or functional assay
T2 chain: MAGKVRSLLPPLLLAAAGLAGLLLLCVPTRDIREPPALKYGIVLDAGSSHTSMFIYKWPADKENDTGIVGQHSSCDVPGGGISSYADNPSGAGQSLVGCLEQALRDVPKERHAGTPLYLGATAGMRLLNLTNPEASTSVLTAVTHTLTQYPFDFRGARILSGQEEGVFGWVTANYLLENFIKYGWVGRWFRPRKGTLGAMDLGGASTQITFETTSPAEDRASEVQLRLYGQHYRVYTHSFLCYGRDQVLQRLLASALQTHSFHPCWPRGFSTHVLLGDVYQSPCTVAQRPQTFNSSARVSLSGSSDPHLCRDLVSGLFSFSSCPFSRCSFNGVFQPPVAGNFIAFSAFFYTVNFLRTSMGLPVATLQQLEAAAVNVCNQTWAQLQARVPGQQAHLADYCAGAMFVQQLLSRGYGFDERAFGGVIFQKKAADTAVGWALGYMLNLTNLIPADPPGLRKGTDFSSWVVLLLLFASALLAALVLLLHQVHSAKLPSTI

[4] = molecular target: T3, mouse ENTPD2, full length, on cells (mouse, UniProt O55026 1-495); experiment: cell-based or functional assay
T3 sequence: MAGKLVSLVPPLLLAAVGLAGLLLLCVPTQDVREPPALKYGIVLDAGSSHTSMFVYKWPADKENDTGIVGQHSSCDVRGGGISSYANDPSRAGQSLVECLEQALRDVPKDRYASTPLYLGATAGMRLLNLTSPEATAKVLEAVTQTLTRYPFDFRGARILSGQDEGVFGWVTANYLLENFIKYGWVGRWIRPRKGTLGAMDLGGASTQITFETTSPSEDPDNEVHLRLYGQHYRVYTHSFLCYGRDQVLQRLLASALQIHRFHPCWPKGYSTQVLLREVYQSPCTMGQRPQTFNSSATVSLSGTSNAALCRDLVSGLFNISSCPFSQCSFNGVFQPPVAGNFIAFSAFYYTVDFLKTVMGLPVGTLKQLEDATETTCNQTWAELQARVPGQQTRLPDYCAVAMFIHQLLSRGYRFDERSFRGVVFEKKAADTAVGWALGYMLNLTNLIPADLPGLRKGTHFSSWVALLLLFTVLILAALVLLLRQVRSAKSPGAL

[5] = molecular target: T2, cynomolgus ENTPD2, full length, on cells; experiment: FACS
[6] = molecular target: T1, human ENTPD2, full length, on cells; experiment: flow cytometry on human ENTPD2 engineered B16LM3 clone B5 cells (human ENTPD2 expressed, endogenous mouse ENTPD2 knocked out); anti-mouse IgG-AF647 secondary. The text names the antibody as mAb13.

Row | Binder | ENTPD2 Biochemical Assay at 1 uM ATP IC50 [1] | Human ENTPD2 NIH/3T3 Assay % inhibition [2] | Human ENTPD2 NIH/3T3 Assay IC50 [2] | RKO Assay % inhibition [2] | RKO Assay IC50 [2] | Cyno ENTPD2 NIH/3T3 Assay % inhibition [3] | Cyno ENTPD2 NIH/3T3 Assay IC50 [3] | ENTPD2 Functional Assay IC50 (nM), mouse ENTPD2 NIH/3T3 cells [4] | binding result [5] | binding result [6]
1 | B1 | 0.87 nM | – | – | – | – | – | – | – | – | –
2 | B2 | 0.52 nM | 92% | 1.1 nM | 97% | 0.8 nM | 91% | 4.1 nM | – | – | –
3 | B3 | 77.3 nM | 30% | > 133 nM | – | – | 5% | > 133 nM | – | – | –
4 | B4 | 0.27 nM | 98% | 0.6 nM | 96% | 0.5 nM | 91% | 1 nM | – | – | –
5 | B5 | – | – | – | – | – | – | – | 2.8 nM | no binding | no binding
6 | B6 | – | – | – | – | – | – | – | 4.6 nM | – | –
7 | B7 | – | – | – | – | – | – | – | 5.9 nM | – | –
